{"source": "the nanobody polyreactivity screen of Harvey et al. (2022)", "assay": "yeast display, Sf9 membrane polyspecificity reagent, FACS + sequencing; frameworks hold sequencing errors", "in_short": "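Galactose induction of a Saccharomyces cerevisiae BJ5465 synthetic nanobody display library ran 36–48 hours. The cells were then stained for 1 hour at 4 °C with 10% biotinylated, detergent-solubilized Sf9 membrane reagent, pulled down on streptavidin microbeads and FACS-sorted into low and high (top ~1%) gates on expression and reagent-binding fluorescence. Labels for polyreactivity follow the gate of origin.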", "data": [{"sequence": "QDQHVESAGGLVQAGGSRRLSCAASESMFSTYPMGCYSQAPGTESELVATIRRGGSTYYADSVKGRFTISRDNAKNTVYLQMNSLKPEDSAVYYCAATVSSYPYYRYYSWGQGTQVTVSS", "values": [{"measurement": "polyreactivity (PSR sort gate)", "value": "high polyreactivity"}]}, {"sequence": "QVQRVESAGGLVQAGGSLRLSCAASGFILDNYAMGWYRQAPGKERELVAAISGSGGSTYYADSVKGRFTISRDNAKNTVYLQMNSLKPEDTAVYYCNRDRLLRQYDYWGQGTQVTVSS", "values": [{"measurement": "polyreactivity (PSR sort gate)", "value": "high polyreactivity"}]}, {"sequence": "QVQLVESGGGLVQAGGSLRLSCAASGSIVRYYAMGWYRQAHGKEREFVAAISWSGGSTYYADSVKGRFTISRDNAKKTVYLQRNSLKPEDTAVFFCATTPGVWSTGGTNGFGYWGQGTQVTVSS", "values": [{"measurement": "polyreactivity (PSR sort gate)", "value": "high polyreactivity"}]}, {"sequence": "QVQLVESGGGLVQAGGSLRLSCAASGSIFDEYAMGWYRQAPGKERELVAVISTSGSTYYADSVKGRFTISRDNAKNPVYLQMNCLKPEDTGVYSSNAAIYTSSYRSYDYWGQGTQVTVTS", "values": [{"measurement": "polyreactivity (PSR sort gate)", "value": "low polyreactivity"}]}, {"sequence": "QVQLVESGGGLVQAGGSLRLSCAASGSIFEYNAMGWYRQAPGKERELVAAITRGGNTYYADSVKGRFTISRDNAKNTVYLQMNSLKPEDTAVYYCAAVQWYGYPYYSWGQGTQVTVSS", "values": [{"measurement": "polyreactivity (PSR sort gate)", "value": "low polyreactivity"}]}, {"sequence": "QVQLVESGGGLVQAGGSLRLSCAASGRTFWANAMGWYRQAPGKERELVAAITSGGSTNYADSVKGRFTISRDNAKNTVYLQMNSLKPEDTAVYYCAAAINRYRRTFNYWGQGTQVTVSS", "values": [{"measurement": "polyreactivity (PSR sort gate)", "value": "high polyreactivity"}]}, {"sequence": "QVQLVESGGGLVQAGGSLRLSCAASGITFGYYDMGWYRQAPGKERELVASISSGGNTNYADSVKGRFTISRDNAKNTVYLQMNSLKPEDTAVYYCNVRYWGFYDYDYWGQGTQVTVSS", "values": [{"measurement": "polyreactivity (PSR sort gate)", "value": "low polyreactivity"}]}, {"sequence": "QVQLVESGGGLVQAGGSLRLSCAASGFTFGSNAMGWYRQAPGKERELVAAISYSGTRTYYADSVKGRFTISRDNAKNTVYLQMNRLKPEDTAVYYCAAGFRKTQFNVRYYYWGHGTQVTVSS", "values": [{"measurement": "polyreactivity (PSR sort gate)", "value": "high polyreactivity"}]}, {"sequence": "QVQLVESRGGLVQAGGSLRLSCAASGLIFASYAMGWNRQAPGKERELVAAISWSGGSTYYADSVKGRFTISRDNAKNTVYLQMNSLKPEDTAVYYCAAKRYAYGSLDYWGQGTQLTVSS", "values": [{"measurement": "polyreactivity (PSR sort gate)", "value": "high polyreactivity"}]}, {"sequence": "QVQLVESGGGLVQAGGSLRLSCAPSGRTFSENAMGWYRQAPGKERELVAAISGSGGRTYYADSVMGRFTISRDNAKNSVFLQMNSLKPEVTAVYYCAKVTRYGSTYDYWGQGTQVTVSS", "values": [{"measurement": "polyreactivity (PSR sort gate)", "value": "high polyreactivity"}]}, {"sequence": "QVQLVESGGGLVQAGGSLRLSCAASGIIFFWNAMGWYRQAPGKERELVAAISEDGGGTYYADSVKGRFTISRDNAKNTVYLQMNSMKPEDTAVYYCNTDTSPQIVTRGSFDDYWGQGTQATVSS", "values": [{"measurement": "polyreactivity (PSR sort gate)", "value": "low polyreactivity"}]}, {"sequence": "QVQLVESGGGLVQAGGSLRLSCAASGFTFYRNTMGWYRQAPGKERELVARIRSVGSTYYADSVKGRFTISRDNAKNTVFLQMNSLKREDTAVYYCAAGPVYDWRGGALRYYYWGQGTQVTVSS", "values": [{"measurement": "polyreactivity (PSR sort gate)", "value": "high polyreactivity"}]}, {"sequence": "QVQLVESGGGLVQAGGSLRLSCAATGSTVDFYAMGWNRQAPRKERELVAAISWSAGSTYYADSVKGRFTISRDNAKNTVYLQMNSLKPEDTAVYYCNADYWGQGTQVTVSS", "values": [{"measurement": "polyreactivity (PSR sort gate)", "value": "low polyreactivity"}]}, {"sequence": "QVQLVESGGGLVQAGGSLRLSCAASGLTFGTNAMGWYRQAPGKERELVAAISTSSGSTYYADSVKGRFTISRDNAKNTVYLQMNSLKPEDTAGYYCAAVTVTKLSYYRYYYWGQGTQVTVSS", "values": [{"measurement": "polyreactivity (PSR sort gate)", "value": "low polyreactivity"}]}, {"sequence": "QVQLVESGGGLVQAGGSLRLSCAASGIIFDGYAMGWYRQAPGKEREFVAGITWSGGSTYYADSVKGRFTISRDNAKNTVYLQMNSLKPEDTSVYYCAAKYYWYYSYSGIPLFDYWGQGTQVTVSS", "values": [{"measurement": "polyreactivity (PSR sort gate)", "value": "low polyreactivity"}]}, {"sequence": "QVQLVEAGGGLVQAGGSLRFSCAASGYIVRSYAMGWYRQAPGKERELVAAITRSGGSTYYADSVKGRFSISRDNAQNSVYLQMNSLKPEDTAVYYCTAKRFRTGFDYWGQGTQVTVSS", "values": [{"measurement": "polyreactivity (PSR sort gate)", "value": "low polyreactivity"}]}, {"sequence": "QVQLVESGGGLVQAGGSLRLSCAASGRIFRSNAMGWYRQSPGKESELVAAITWRGRTYYADSVKGRFTISRDNAKNTVYLQMNSLKPEDTAVYYCNAYVRYGYDYWGHGTQVTVSS", "values": [{"measurement": "polyreactivity (PSR sort gate)", "value": "high polyreactivity"}]}, {"sequence": "QVQLVESGGGLVQAGGSLRLSCAASGFISPKYGMGWYRQAPGKERELVAAITPSDGSTSYADSVKGRFTISRDNAKNTVYLQMNSLKPEDTAVYYCNKSRYKSYSYDYWGQGTQVTVSS", "values": [{"measurement": "polyreactivity (PSR sort gate)", "value": "high polyreactivity"}]}, {"sequence": "QVQIVESGGGLVQAAGSLRLSCAASGSTFQTYAMGWYRQAPGKERELVAAITSGGSTNYADSVKGRFTISRDNAKNTVYLQMNSLKPEDTAVSYCAVRQIYQTSDHRLQYDYWGQGTQVTVSS", "values": [{"measurement": "polyreactivity (PSR sort gate)", "value": "low polyreactivity"}]}, {"sequence": "QVQLVESGGGLVQAGGSLRLSCAASVRIFGSNVMGWYRQAPGKERELVASISSGGTTYYADSVKGRFTISRDNAKYTVYLQMNSLKPEDTAVYYCAKQWTRIYQYRWYPGTRTGYDYWGQGTQVTVSS", "values": [{"measurement": "polyreactivity (PSR sort gate)", "value": "high polyreactivity"}]}, {"sequence": "QVQLVESGGGLVQAGGSLRLSCAASGIIFVRNVMGWYRQAPGKERELVAAITNGGSTYYADSVKGRFTISRDNAKNTVYLQMNSLQPEDTAVYYCAALTGVRRRYYYWGQGTQVTVSS", "values": [{"measurement": "polyreactivity (PSR sort gate)", "value": "high polyreactivity"}]}, {"sequence": "QVQLVESGGGLVQAGGSLRLSCAASRSTFSGNAMGWYIQAPGKERELVATITSDGTTYYADSVKGRFTISRDNAKNNVYLLMNSLKPEDTAVYYCAARYTAYRDDYWGQGTHVTVSS", "values": [{"measurement": "polyreactivity (PSR sort gate)", "value": "high polyreactivity"}]}, {"sequence": "QVQLVESGGGLVQAGGSLRLSCAASGIIFVYYVMGWYRQAPGKERELVASIDGSGGSTNYADSVKGRFTISRDNAKNTVYLQMNSLKPEDTAVYYCNADNILYWSTLDYLGQGTQVTVSS", "values": [{"measurement": "polyreactivity (PSR sort gate)", "value": "low polyreactivity"}]}, {"sequence": "QVQLVESGGGLVQAGGSLRLSCAASGSIFPGYSMGWCRQAPGKERELVAAISISGGDTYYADSVKGRFTISRDNAKNTGYFQMNSLKPEDTSVYHCNKEDDDREWFEYYWWYDYWGQGTQVTVTS", "values": [{"measurement": "polyreactivity (PSR sort gate)", "value": "high polyreactivity"}]}, {"sequence": "QVQLVESGGGLVQAGGSLRLSCAASGFIFLIYAMGWYRQAPGKERELVATIRYSGGRTYYADSVKGRFTISRDNAKNTVYLQMNSLKPEDTAVYYCAARSVWFSGQGRMNYWGQGTQVTVSS", "values": [{"measurement": "polyreactivity (PSR sort gate)", "value": "high polyreactivity"}]}, {"sequence": "QVQLVESGGGLVQAGGSLRLRCAASGSIFPWYAMGWYRQAPGKERELVAAITISGGSTHYADSVKGRFTISRDNAKNTVYLQMNCLKPEDTAVYYCATPRYPSYDYWGQGTQVTVSS", "values": [{"measurement": "polyreactivity (PSR sort gate)", "value": "low polyreactivity"}]}, {"sequence": "QVQRVESGGGLVQAGGSLRLSCAASGSIFGYYAMGWSRQAPVKERELVAAITRSCGSTYYADSVKGRFTISRDNAKTTVYLQMNSLKPEDTAVYYCNAVRYAVRLPAFPGYDYLGQGTQVTVSS", "values": [{"measurement": "polyreactivity (PSR sort gate)", "value": "high polyreactivity"}]}, {"sequence": "QVQLVESGGGLVQAGGSLRLSCAASGRIFSAYAMGWYRQAPGKERELVAAISRSRGRTYYADSVKGRVTISRDNAKNTVYLQMNSLKPEDTAVYYCAAARFAIVRGDYWGQGTQVTVSS", "values": [{"measurement": "polyreactivity (PSR sort gate)", "value": "high polyreactivity"}]}, {"sequence": "QVQLVESGGGLVQAGGILRLSCAASGSIFRVYAMGWYRQAPGKERELVAGITSTGTRTYYADSVKGRFTISRDNAKNPVSLQKNSLKPEDTAVYYCAARDTYRKAYYYWGHGTQVTVSS", "values": [{"measurement": "polyreactivity (PSR sort gate)", "value": "high polyreactivity"}]}, {"sequence": "QVQLVESGGGLVQAGCSLRLSCAASGLIFSKNVMGWYRQAPGKERELVAAISQRGGSTYYADSVKGRFTISRDNAKNTVYLQMNSLKPEDTAVYYCAADNSVSHEDYWGQGTQVTVSS", "values": [{"measurement": "polyreactivity (PSR sort gate)", "value": "high polyreactivity"}]}, {"sequence": "QVQLVESGGGLVQAGGSLRLSCAASGFTFYPYAMGWYRQAPGKERELVASFTSAGGTNYADSVKGRFTISRDNAKNTVYLQMNSLKPEDTAVYYCAAKYRSRGPDYYFKSDYWGQGTQVTVSS", "values": [{"measurement": "polyreactivity (PSR sort gate)", "value": "low polyreactivity"}]}, {"sequence": "QVQLVESGGGLVQAGGSLRLSCAASGRTFAYYAMGWYKQAPGKERELVAAISWSGGSTYYADSVKGRFTISRDNAKYTVYLQMNSLKPEDTAVYYCNTLGGTEYGYWGQGTQVTVSS", "values": [{"measurement": "polyreactivity (PSR sort gate)", "value": "high polyreactivity"}]}]}
